In patent publication US20180080944A1:

Key:
[1] = molecular target: Src homology 3 domain binding protein 5 (SH3BP5 or SAB), ectopically expressed from pLOC:Sab (UniProt O60239); assay: cell-based or functional assay
[2] = molecular target: Sab:KIM1/2 L-A (MAPK/JNK-binding deficient mutant of Sab, pLOC:Sab:KIM1/2 L-A) (UniProt O60239); assay: cell-based or functional assay
Sequence of Sab:KIM1/2 L-A (MAPK/JNK-binding deficient mutant of Sab, pLOC:Sab:KIM1/2 L-A) (O60239 other isoform, or with tags, fused parts or gaps mutant limits assumed): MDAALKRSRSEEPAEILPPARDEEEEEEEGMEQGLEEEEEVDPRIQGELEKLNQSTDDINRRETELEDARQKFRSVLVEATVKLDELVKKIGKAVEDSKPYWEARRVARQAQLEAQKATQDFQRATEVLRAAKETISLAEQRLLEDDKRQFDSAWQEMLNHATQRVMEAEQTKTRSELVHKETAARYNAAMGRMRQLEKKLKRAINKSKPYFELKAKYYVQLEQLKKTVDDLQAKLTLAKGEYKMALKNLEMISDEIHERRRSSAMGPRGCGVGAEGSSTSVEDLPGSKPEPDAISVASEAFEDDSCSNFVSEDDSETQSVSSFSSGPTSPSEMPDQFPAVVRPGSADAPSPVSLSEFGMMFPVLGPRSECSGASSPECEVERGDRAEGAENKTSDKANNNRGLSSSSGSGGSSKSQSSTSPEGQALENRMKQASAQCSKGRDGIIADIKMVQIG

Sequence of Src homology 3 domain binding protein 5 (SH3BP5 or SAB), ectopically expressed from pLOC:Sab (O60239 whole entry): as the sequence (O60239 other isoform, or with tags, fused parts or gaps mutant limits assumed) above, with A347L, A349L, A434L, A436L counted along it

## c-Jun N-terminal Kinase (JNK) (enzyme)
[1]
  Cisplatin IC50 (nM), HeLa cells with ectopic expression, TO-PRO-3 staining: 0.42 nM
  Paclitaxel IC50 (µM), HeLa cells with ectopic expression, TO-PRO-3 staining: 4.7 µM
  fold decrease in the IC50 of paclitaxel in HeLa cells against untreated, mock-transfected or RFP-expressing cells: 5 fold
[2]
  Cisplatin IC50 (nM), HeLa cells with ectopic expression, TO-PRO-3 staining: 3.1 nM
  Paclitaxel IC50 (µM), HeLa cells with ectopic expression, TO-PRO-3 staining: 13.8 µM
